Earlier results in publication PMC6406280.

What was measured:
thrombin [1] = target: T1, thrombin (UniProt P00734+P00734); assay: thrombin inhibition (apparent Ki); conditions: no binding assay done in this paper (SEC, CD/UV melting, analysis of published structures); conditions of the cited assays not in the material
thrombin [2] = target: T1, thrombin; assay: not stated (cited); conditions: no binding assay done in this paper (SEC, CD/UV melting, analysis of published structures), conditions of the cited assays not in the material
thrombin [3] = target: T1, thrombin; assay: not stated (cited; equals the aKi); conditions: no binding assay done in this paper (SEC, CD/UV melting, analysis of published structures); conditions of the cited assays not in the material

Substance | Ki (thrombin [1]) | other results
CACTGGTAGGTTGGGTAGGGTGGGGCCAGTG [jja] | 1.2 nM | –
CACTGGTAGGTTGGGTAGGGTGGTCCAGTG [jaa] | 1.34 nM | –
CACTGGTAGGTTGGTGTGGTTGGGGCCAGTG [31-TBA (jjj)] | 0.34 nM | –
CACTGGTAGGTTGGTGTGGTTGGTCCAGTG [jaj] | 14.2 nM | –
CGCCTAGGTTGGGTAGGGTGGGGGGCG [aja] | 13.2 nM | –
CGCCTAGGTTGGGTAGGGTGGTGGCG [NU172 (aaa)] | 0.29 nM | Kd (thrombin [2]): 35 nM; Kd (thrombin [3]): 0.29 nM
CGCCTAGGTTGGTGTGGTTGGGGGGCG [ajj] | 48.6 nM | –
CGCCTAGGTTGGTGTGGTTGGTGGCG [aaj] | 13.4 nM | –
RE31 | – | Kd (thrombin [2]): 0.56 nM
mTBA | – | Kd (thrombin [2]; modified TBA, not described): 25 nM
